Patent US20180362643A1 (Amgen, published 2018)
Ends that are not written are not given here.

Assays:
[1] = target: T1, full-length human PACAP38 (human, not fully specified); experiment: cell-based or functional assay
T1 peptide: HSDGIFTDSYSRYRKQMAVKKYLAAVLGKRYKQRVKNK

[2] = target: T2, amino terminal PACAP38 peptide (amino acids 1-13) (human); experiment: ELISA screen of B-cell culture supernatant; N-terminal peptide at 500 ng/mL
T2 construct: also called N-terminal Peptide; N-terminal PACAP peptide
T2 peptide: HSDGIFTDSYSRY

[3] = target: T3, PACAP38 peptide fragment 34-38 (human, ends and bridges not checked); experiment: SPR (Biacore 3000) solution competition: antibody pre-incubated 1:200 with the fragment, then injected over immobilised PACAP38
T3 construct: also called peptide No. 17; RVKNK
T3 peptide: RVKNK
Description: (§1) In this experiment, various peptide fragments of PACAP38 were incubated with each of the six antibodies (mAb1, mAb2, mAb3, mAb4, mAb5, and mAb6) described in Example 2 and evaluated for their ability to inhibit binding of the antibodies to full-length PACAP38 immobilized on the sensor-chip. The binding epitopes for each of the antibodies were deduced from the set of peptides that were able to inhibit the binding of each antibody to full-length PACAP38.
(§2) Each of the six anti-PACAP antibodies was incubated at a 1:200 molar ratio (Ab: peptide fragment) with each of the peptide fragments in Table 9 at an ambient temperature for 2 hours prior to analysis. […] A second control containing 6.5 nM antibody was prepared in sample diluent to be used as the untreated control sample for each antibody. Full-length PACAP38, buffer, and each peptide fragment were also tested to evaluate non-specific binding to the immobilized PACAP38 surface.

human PACAP27 [4] = target: T4, human PACAP27 (human, not fully specified); experiment: SPR (Biacore 3000), solution competition with the peptide for antibody binding to immobilised full-length PACAP38; % inhibition
T4 construct: Natural isoform, amino acids 1-27 of PACAP38; also called peptide No. 1 (amino acids 1-27 of PACAP38)
T4 peptide: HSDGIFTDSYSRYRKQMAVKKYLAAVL
Description: (§3) The binding epitopes of anti-PACAP antibodies were evaluated by using the Biacore 3000 biosensor-based instrument (GE Healthcare USA). The Biacore 3000 instrument utilizes surface plasmon resonance (SPR) technology to measure mass increase on the sensor-chip surface. The binding interactions are measured in real-time and recorded as Response Units (RU). Each binding profile (cycle) is stored in a “sensorgram” in real-time. Generally, Biacore technology entails immobilizing a ligand of interest on to a flow-cell of the sensor-chip via a coupling chemistry. The analyte (e.g. putative binding partner to the ligand of interest) is injected across the immobilized ligand allowing it to bind to the ligand-immobilized surface. The magnitude of the response is directly proportional to the mass increase on the immobilized surface due to the binding of the analyte.
as §1, §2

31-38 = target: T5, 31-38 (ends and bridges not checked); experiment: SPR (Biacore 3000), solution competition: antibody pre-incubated 2 h with the peptide at 1:200 molar ratio (Ab:peptide), then injected over immobilised full-length PACAP38; readout % inhibition of antibody binding (filing counts >50 % as reactive)
T5 construct: also called PACAP38 peptide fragment 31-38; peptide No. 5
T5 peptide: YKQRVKNK
Description: as §3, §1, §2

30-37 [5] = target: T6, 30-37; experiment: as above
T6 construct: also called PACAP38 peptide fragment 30-37; peptide No. 19
T6 peptide: RYKQRVKN
Description: as §3, §1, §2

[6] = target: T7, PACAP38 peptide fragment 27-38 (human, ends and bridges not checked); experiment: as above
T7 construct: also called peptide No. 6
T7 peptide: LGKRYKQRVKNK
Description: as §3, §1, §2

human PACAP27 [7] = target: T4, human PACAP27; experiment: cell-based or functional assay
[8] = target: T8, PACAP38 peptide fragment 6-35 (human); experiment: SPR (Biacore 3000) solution competition: antibody pre-incubated 1:200 with the fragment, then injected over immobilised PACAP38
T8 construct: also called peptide No. 4
T8 peptide: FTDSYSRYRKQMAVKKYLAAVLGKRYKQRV
Description: as §1, §2

[9] = target: T9, PACAP38 peptide fragment 14-38 (human, not fully specified); experiment: as above
T9 construct: also called peptide No. 7
T9 peptide: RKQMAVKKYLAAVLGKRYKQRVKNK
Description: as §1, §2

[10] = target: T10, PACAP38 peptide fragment 11-27 (human); experiment: as above
T10 construct: also called peptide No. 8
T10 peptide: SRYRKQMAVKKYLAAVL
Description: as §1, §2

[11] = target: T11, PACAP38 peptide fragment 4-27 (human); experiment: as above
T11 construct: also called peptide No. 9
T11 peptide: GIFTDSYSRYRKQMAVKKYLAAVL
Description: as §1, §2

30-37 [12] = target: T6, 30-37; experiment: SPR (Biacore 3000), solution competition with the peptide for antibody binding to immobilised full-length PACAP38; % inhibition
Description: as §3, §1, §2

[13] = target: T3, PACAP38 peptide fragment 34-38; experiment: as above
Description: as §3, §1, §2

[14] = target: T8, PACAP38 peptide fragment 6-35; experiment: SPR (Biacore 3000), solution competition: antibody pre-incubated 2 h with the peptide at 1:200 molar ratio (Ab:peptide), then injected over immobilised full-length PACAP38; readout % inhibition of antibody binding (filing counts >50 % as reactive)
Description: as §3, §1, §2

[15] = target: T10, PACAP38 peptide fragment 11-27; experiment: as above
Description: as §3, §1, §2

[16] = target: T11, PACAP38 peptide fragment 4-27; experiment: as above
Description: as §3, §1, §2

B1: mAb2 (antibody, V domains shown)
VH: QSLEESGGGLVQPEGSLTLTCTASGFSFNSSSYMCWVRQAPGKGLEWIGCIFTGSSGNTYYATWAQGRFTISKTSTTVTLEMTSLTAADTATYFCARDRAYFLVGYFYATYYFDLWGPGTLVTVSS
VL: DVVMTQTPSPVSAQVGGTVTINCQASESIDSDLSWYQQKPGQPPKLLIYRTFTLESGVPSRFKGSGSGTDYTLTISDLECADAAIYYCQCTDGSSISGSYGWDAFGGGTEVVVKG
notes: Rabbit monoclonal antibody (SLAM), recombinant; also called monoclonal anti-PACAP antibody 2; 2 (c81)
IC50, inhibition of PACAP38-induced activation of the PAC1 receptor (cAMP assay, CRL-2266 cells) [1]: < 1 nM | potency relative to PAC1 Ab, inhibition of PACAP38-induced PAC1 receptor activation (cAMP assay) [1]: ~10 fold | Optical Density [2]: 0.06 OD | binding result [3]: binds | binding result (human PACAP27 [4]): no binding (tested: 1:200 molar ratio (Ab:peptide)) | binding result (31-38): binds | binding result (30-37 [5]): binds | binding result [6]: binds

B2: mAb5 (antibody, V domains shown)
VH: QSVEESGGRLVTPGTPLTLTCTVSGFSLSTYNMCWVRQAPGKGLEWVGFINSDDSAYYASWAKGRFTFSKTSTTVDLKIASPTTEDTATYFCARYDWDYYYSRLDLWGPGTLVTVSS
VL: DIVLTQTPASVSAAVGGTVSISCQSSESVYNNNYLSWFQQKPGQPPKLLIYGASTLASGVPSRFEGSGSGTQFTLTISDVQCDDAATYYCLGDYIIIENIFGGGTEVVVKG
notes: Rabbit monoclonal antibody (SLAM), recombinant; also called monoclonal anti-PACAP antibody 5; 5 (c71)
IC50: inhibition of PACAP27 (10 pM)-induced activation of human PAC1 receptor, cAMP assay in SH-SY5Y (CRL-2266) cells, POC versus antibody concentration (human PACAP27 [7]): 41 nM | binding result [8]: binds | binding result [9]: binds | binding result [10]: binds | binding result [11]: binds | binding result (30-37 [12]): no binding (tested: 1:200 molar ratio (Ab:peptide)) | binding result [13]: no binding (tested: 1:200 molar ratio (Ab:peptide))

B3: mAb6 (antibody, V domains shown)
VH: QLEESGGGLVQPGASLTLTCTTSGFSLSDNYLCWVRQAPGRGLEWVACIGIVLRSTGATYYASWAEGRFTISKTSPTTVTLEMTSLTAADTATYFCALDLGYGGPLWGPGTLVTVSS
VL: AQVLTQTPASVSAAVGGTVTINCQASQSVYNNKNLAWYQQKPGQPPKLLIYFSSTLASGVPSRFRGSGSGTQFTLTISGVQCGDAATYYCLGEFGSIWAFGGGTEVVVKG
notes: Rabbit monoclonal antibody (SLAM), recombinant; also called monoclonal anti-PACAP antibody 6; 6 (c55)
binding result (30-37 [12]): no binding (tested: 1:200 molar ratio (Ab:peptide)) | binding result [13]: no binding (tested: 1:200 molar ratio (Ab:peptide)) | binding result [14]: binds | binding result [15]: binds | binding result [16]: binds
